Experimental data as given in patent US20090281024A1 (RAPTOR PHARMACEUTICALS, published 2009).
Substitutions are numbered along the chain they refer to.

Legend:
RAP d3 E251K, K270E = target: T1, RAP d3 E251K, K270E (human, UniProt P30533 235-353); experiment: solid-phase binding assay: LRP2 CR89 coated on the plate, d3 ligand in solution, anti-RAP detection, absorbance
T1 construct: range 201-319 (mature RAP numbering); Forward mutant of m1; same construct; also called RAP E251K, K270E; not shown: N-terminal hexahistidine and S-peptide tags of pET30(+)a
T1 sequence (looked up): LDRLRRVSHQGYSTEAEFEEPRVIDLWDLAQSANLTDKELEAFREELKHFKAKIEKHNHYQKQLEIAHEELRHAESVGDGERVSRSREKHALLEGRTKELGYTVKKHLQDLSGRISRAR
Description: (§1) Solid phase binding assays—Purified, refolded CR protein (1 μg) was bound to Nunc Maxisorp™ 96-well plates in TBS pH 8 supplemented with 5 mM CaCl₂ (TBSC) overnight at 4° C. Wells were washed with TBSC and then blocked with TBSC containing 2% bovine serum albumin (BSA). RAP ligands were then incubated with the immobilized receptor at a range of concentrations for 2 hours in the above blocking buffer supplemented with 0.05% Tween-20 at room temperature. Control wells contained no added ligand. As an additional control, to determine whether the absence of calcium affected binding, 10 mM EGTA was included in the incubation medium for some samples. Wells were washed with TBSTC and bound ligands detected with polyclonal anti-RAP (BP41/42, 1:1,000, BioMarin). Excess primary antibody was removed and wells washed before incubation with the secondary antibody, HRP-conjugated goat anti rabbit IgG (Bio-Rad). After washing, TMB substrate solutions (Bio-Rad) were added to detect HRP. Color development was stopped with 1N HCl. Absorption at 450 nm was measured with a microplate spectrophotometer (Molecular Devices). Data were plotted and Kd values derived by non-linear regression with the assumption of single-site binding (GraphPad Prism).
(§2) Next, the binding of RAP d3 and MegaRAP1 d3 proteins to LRP1 CR3-5 and LRP2 CR89 was assessed. […] In all cases, 10 mM EGTA prevented binding of both RAP d3 and MegaRAP1 d3 to CR proteins. Since calcium was the only divalent metal ion present in the binding buffer, this observation is consistent with both RAP d3 and MegaRAP1 d3 binding to calcium-loaded CR pairs. […] Therefore, wild-type RAP d3 and MegaRAP1 d3 have inverted binding preferences for these two receptor fragments.

RAP d3 H249Y = target: T2, RAP d3 H249Y (human, UniProt P30533 235-353); experiment: as above
T2 construct: range 201-319 (mature RAP numbering); Forward mutant of m1; same construct; also called RAP H249Y; not shown: N-terminal hexahistidine and S-peptide tags of pET30(+)a
T2 sequence (looked up): T1 sequence (looked up) with H49Y, K51E, E70K
Description: as §1, §2

MegaRAP1 d3 [1] = target: T3, MegaRAP1 d3 (human, UniProt P30533 235-353); experiment: solid-phase assay, coated CR protein
T3 construct: range 201-319 (mature RAP numbering); d3 of the variant selected on LRP2 CR89; also called RAPv2A d3; RAP v2A; not shown: N-terminal hexahistidine and S-peptide tags of pET30(+)a
T3 sequence (looked up): T1 sequence (looked up) with S13T, E17K, H49Y, K56A
Description: (§3) Wells were washed with TBSTC and bound ligands detected with polyclonal anti-RAP (BP41/42, 1:1,000, BioMarin). Excess primary antibody was removed and wells washed before incubation with the secondary antibody, HRP-conjugated goat anti rabbit IgG (Bio-Rad). After washing, TMB substrate solutions (Bio-Rad) were added to detect HRP. Color development was stopped with 1N HCl. Absorption at 450 nm was measured with a microplate spectrophotometer (Molecular Devices). Data were plotted and Kd values derived by non-linear regression with the assumption of single-site binding (GraphPad Prism).
as §2

[2] = target: T4, RAP d3 E251K, K256A, K270E (human, UniProt P30533 235-353); experiment: solid-phase assay, coated CR protein
T4 construct: range 201-319 (mature RAP numbering); Forward mutant of m1; same construct; also called RAP E251K, K256A, K270E; not shown: N-terminal hexahistidine and S-peptide tags of pET30(+)a
T4 sequence (looked up): T1 sequence (looked up) with K56A
Description: as §3, §2

MegaRAP1 d3 [3] = target: T3, MegaRAP1 d3; experiment: solid-phase assay, coated CR protein (same value as Table 1)
MegaRAP1 d3 [4] = target: T3, MegaRAP1 d3; experiment: solid-phase assay, coated CR protein; remark: listed apart in the source
Description: as §3
One premise of this work was that amino acids at A, C, A′ and C′ within the calcium-binding loops of a CR pair were key determinants of binding affinity for RAP and would be similarly important for binding of RAP variants. To test this idea, mutant LRP2 CR89 were prepared in which the native, non-canonical residues at these positions were sequentially substituted with the non-native, canonical residues. As defined above, the A, C, A′, C′ string for LRP2 CR89 is YVWR. Mutants included LRP2 CR89Y1042W (WVWR), LRP2 CR89V1047D (YDWR), LRP2 CR89R1088D (YVWD), LRP2 CR89V1047D R1088D (YDWD), LRP2 CR89 Y1042W V1047D R1088D (WDWD), LRP2 CR89Y1042W V1047D (WDWR), LRP2 CR89Y1042W R1088D (WVWD). Binding to both RAP d3 and MegaRAP1 d3 were measured for each LRP2 CR89 mutant by solid-phase assay. […] The A′ position in LRP2 CR89 is a tryptophan, the canonical residue for wild-type RAP d3 binding, and was not mutated in our studies. […] We did see a small increase in binding of RAP d3 to the WVWD and WDWD combinations at A, C, A′ and C′.

binding result (RAP d3 E251K, K270E): no binding (tested: 100 nM) | binding result (RAP d3 H249Y): no binding (tested: 100 nM) | Kd (MegaRAP1 d3 [1]): 38 nM | Kd [2]: 114 nM | Kd (MegaRAP1 d3 [3]): 38 nM | Kd (MegaRAP1 d3 [4]): 33 nM
B1: LRP2 CR89 (receptor)
chain: not shown
notes: domain: CR89; Limits of the fragment are set only by the primers LRP2CR8F and LRP2CR9R; also called YVWR; L2 CR89; not shown: N-terminal hexahistidine and S-peptide tags of pET30(+)a
